Measured values reported in IntAct's records for PubMed 34706264.

B1: ORF3a protein (SARS-CoV-2), P0DTC3 (parent)
chain: MDLFMRIFTIGTVTLKQGEIKDATPSDFVRATATIPIQASLPFGWLIVGVALLAVFQSASKIITLKKRWQLALSKGVHFVCNLLLLFVTVYSHLLLVAAGLEAPFLYLYALVYFLQSINFVRIIMRLWLCWKCRSKNPLLYDANYFLCWHTNCYDYCIPYNSVTSSIVITSGDGTTSPISEHDYQIGGYTEKWESGVKDCVVLHSYFTSDYYQLYSTQLSTDTGVEHVTFFIYNKIVDEPEEHVQIHTIDGSSGVVNPVMEPIYDEPTTTTSVPL
B2: ORF3a protein (SARS-CoV-2), P0DTC3 (parent)
chain: B1 chain
partner: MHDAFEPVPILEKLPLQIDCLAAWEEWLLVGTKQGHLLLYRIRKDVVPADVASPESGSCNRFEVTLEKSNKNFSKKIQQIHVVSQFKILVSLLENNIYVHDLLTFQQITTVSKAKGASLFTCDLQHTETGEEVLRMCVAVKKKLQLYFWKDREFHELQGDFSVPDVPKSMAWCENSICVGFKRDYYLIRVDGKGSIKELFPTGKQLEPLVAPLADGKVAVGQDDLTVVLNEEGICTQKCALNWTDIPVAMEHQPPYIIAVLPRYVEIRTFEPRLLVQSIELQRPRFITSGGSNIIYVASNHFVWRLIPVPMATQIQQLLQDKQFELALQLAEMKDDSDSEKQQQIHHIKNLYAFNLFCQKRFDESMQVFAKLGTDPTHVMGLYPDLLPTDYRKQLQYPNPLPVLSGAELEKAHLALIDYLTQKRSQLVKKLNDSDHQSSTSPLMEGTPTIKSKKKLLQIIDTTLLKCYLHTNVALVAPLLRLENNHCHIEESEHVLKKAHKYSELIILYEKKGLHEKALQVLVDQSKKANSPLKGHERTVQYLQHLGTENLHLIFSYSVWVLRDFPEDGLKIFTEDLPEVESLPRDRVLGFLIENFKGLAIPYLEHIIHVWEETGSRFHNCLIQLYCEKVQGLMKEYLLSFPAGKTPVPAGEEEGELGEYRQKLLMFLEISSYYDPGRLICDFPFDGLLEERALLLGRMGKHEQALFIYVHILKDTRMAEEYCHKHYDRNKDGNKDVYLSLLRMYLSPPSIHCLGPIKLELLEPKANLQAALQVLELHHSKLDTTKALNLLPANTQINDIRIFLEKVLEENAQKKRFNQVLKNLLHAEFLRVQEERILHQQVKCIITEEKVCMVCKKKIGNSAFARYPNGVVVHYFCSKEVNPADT

Variants of: B1
Details: with stx4_human STX4, Q12846
stx4_human STX4, Q12846, sequence (Q12846 whole entry): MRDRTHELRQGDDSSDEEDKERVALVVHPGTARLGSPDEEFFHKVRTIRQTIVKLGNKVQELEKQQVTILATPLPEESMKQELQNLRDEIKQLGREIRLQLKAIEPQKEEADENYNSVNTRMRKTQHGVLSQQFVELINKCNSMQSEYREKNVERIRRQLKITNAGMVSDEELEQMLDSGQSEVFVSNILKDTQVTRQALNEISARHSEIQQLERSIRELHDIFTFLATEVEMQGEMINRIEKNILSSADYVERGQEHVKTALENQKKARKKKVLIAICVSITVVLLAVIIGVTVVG

Variant | effect of a mutation on the interaction
S171E | disrupting interaction strength

Variants of: B1
Details: with vamp7_human VAMP7, P51809
vamp7_human VAMP7, P51809, sequence (P51809 whole entry): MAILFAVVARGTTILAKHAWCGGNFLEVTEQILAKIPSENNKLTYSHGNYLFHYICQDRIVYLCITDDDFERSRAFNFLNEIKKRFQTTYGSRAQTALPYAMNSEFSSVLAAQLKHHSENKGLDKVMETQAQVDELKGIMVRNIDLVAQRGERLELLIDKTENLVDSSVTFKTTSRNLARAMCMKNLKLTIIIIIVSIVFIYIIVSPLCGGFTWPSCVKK

Variant | effect of a mutation on the interaction
S171E | disrupting interaction strength

Variants of: B2
Details: with vps39_human VPS39, Q96JC1

Variant | effect of a mutation on the interaction
W193R | decreasing interaction strength
S171E | disrupting interaction strength

Variants of: B2
Details: with vps39_human VPS39, Q96JC1
Remark: another data set of the same source

Variant | effect of a mutation on the interaction
S58L | with no effect
MDLFMRIFTIGTVTLKQGEIKDATPSDFVRATATIPIQASLPFGWLIVGVALLAVFESASKIITLKKRWQLALSKGVHFVCNLLLLFVTVYSHLLLVAAGLEAPFLYLYALVYFLQSINFVRIIMRLWLCWKCRSKNPLLYDANYFLCWHTNCYDYCIPYNSVTSSIVITSGDGTTSPISEHDYQIGGYTEKWESGVKDCVVLHSYFTSDYYQLYSTQLSTDTGVEHVTFFIYNKIVDEPEEHVQIHTIDGSSGVVNPVMEPIYDEPTTTTSVPL [Q57E] | with no effect
Q116L | with no effect
